Data on 41 sequences can be found in the nanobody polyreactivity screen of Harvey et al. (2022).

This data set is described as follows: yeast display, Sf9 membrane polyspecificity reagent, FACS + sequencing; frameworks hold sequencing errors. An outline of the steps:
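A nanobody's polyreactivity label depends on the gate it was sorted from. Yeast display cells were stained with 10% biotinylated, detergent-solubilized Sf9 membrane reagent for 1 hour at 4 °C, enriched on streptavidin microbeads and sorted by FACS. The low and high (top ~1%) gates were set on anti-HA fluorescence for expression and streptavidin fluorescence for reagent binding.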
Turning to “QVQLVESGGGLVQAGGSLRLSCAASGFTFNNYAMGWYRQAPGKERELVAAISSGAGTYYADSVKGRFTISRDNAKNTVYLQMNSLKPEDTAVYYCNASLKYQGLTRITYRDDYWGQGTQVTVSS”, the “polyreactivity (PSR sort gate)” value is “low polyreactivity”.

As to “QVQLVESGGGLVQAGGSLRLSCAASGRILSVYAMGWYRQAPGKERELVAAIDYSGGSTNYADSVKGRFTISRDNAKNTVYLQMNSLKPEDTAVYYCNREGGAIAWRYLLEYLYSWGQGTQVTVSS”, the “polyreactivity (PSR sort gate)” value is “low polyreactivity”.

As for “QVQLVESGGGLVQAGGSLRLSCAASGIIFQSYTMGWYRPATGKERELVAAIDSGGSTYYADSVKGRFTISRDNAKNTVYLQMNSLKREDTAVYYCAAEPDTYWYTFYYWGQGTQVTVSS”, the “polyreactivity (PSR sort gate)” value is recorded as “low polyreactivity”.

Consider “QVQLVESGGGLVKAGGSLRLSCAASGIIMSYYVMGWYIQAPGKERELVAAISLRGGTTYYADSEKGRFTISRDNAKNTVYLQKNSLKPEDTAVYYCAAQRPGFGYEYDYWGQGTQVTVSS”, for which the “polyreactivity (PSR sort gate)” value is reported as “high polyreactivity”.

With “QVQLVESGGGLVQAGGSLRLSCAASGLTLYYNAMGWYRQAPGKERELVAAMSGSGGNTYYADSVKGRFTISRDNAKNTVYLQMNSLKPEDTAVYYCNAYTHSRNPERREYYWGQGTQVTVSS”, the “polyreactivity (PSR sort gate)” value is “high polyreactivity”.

As for “QVQLVESGGGLVQAGGSLRLSCAASGRTLSWYAMGWYRQAPGKEREFVAAITSSGASTYYADSVKGRFTISRDNAKNTVYLQMNSLKPEDTAVYYCAAEAVYVSSWYDEYYYFRYDYWGQGTQVTVSS”, the “polyreactivity (PSR sort gate)” value is reported as “high polyreactivity”.

Take “QVQRLESVGRLVQAGGSLRLSSAPSGIIFRGYVMGWYIQARGKESELVAAITSSTGSTYYADSVKGRFTISRENAKNTGYLLMNILKPEDTAVYYCNVDYYVPNDGYEYWGQGTQVTVSS”: the “polyreactivity (PSR sort gate)” value is “low polyreactivity”.

“QVQLVESGGGLVQAAGSLSLICAASGIIFQRSAKGWYRQAPVKERELVATLTISGGSTYYADSVKGRFTISREYAKNTVYLQMNRLKPEDTAVYYCAAALYYPTVRRRFGSDYYWGQGTQVTVSS”: the “polyreactivity (PSR sort gate)” value is recorded as “low polyreactivity”.

For the sequence “QVQLVESGGGLVQAGGSLRLSCAASGRTFGDNAMGWYRQAPGKERELVAAISSGDSTNYADSVKGRFTISRDNAKNTVYLQMNSLKPEDTAVYYCAAEFSHTYVYVDLDYWGQGTQVTVSS”, the “polyreactivity (PSR sort gate)” value is listed as “low polyreactivity”.

Consider “QVQLVESGGGLVQAGGSLRLSCAASGRTLNRNAMGWYRQAPGKERELVAAISRRGGSTNYADSVKGRFTISRDNAKNTVYLQMNSLKPEDTAVYYCARVTTVYDGRGFVDVKRGYWGQGTQVTVSS”, for which the “polyreactivity (PSR sort gate)” value was “high polyreactivity”.

Consider “QVQLVESGGGLVQAGGSLRLSCAASGRSFWAYAMGWYRQETGTERELVADITTSGGSTNYADSVKGRFTISRDNAKNTVYLQMNSLKPEDTAVYYCNADPTYHVVNCVGYWGHGTQVTVSS”, for which the “polyreactivity (PSR sort gate)” value was “low polyreactivity”.

Consider “QVQLVESGGGLVQAGGRLRLSSAASGSTFHGYAMGWYRQEPGKERELVAAITSGDSTNYADSVKGRFTISRDNAKKTVYLQMNSLKPEDTAVYDCNAEGSSVLTGYWGYPPYWDTYVYWGQGTQVTVSA”, for which the “polyreactivity (PSR sort gate)” value is “low polyreactivity”.

With “QVQLVESGGGLVQAGGSLRLSCAASGSIFKYYAMGWYRQAPGKERELVAAISSGGRTYYADSVKGRFTISRDNAKNTVYLQMNSLKPEDTAVYYCNRGTVNSWARGYWGQGTQVTVSS”, the “polyreactivity (PSR sort gate)” value was “high polyreactivity”.

In the case of “QVQLVESGGGLVQAGGSLRLSCAASGSILTPYAMGWYRQAPGKERELVAAISWGDGSTYYADSVKGRFTISRDNAKNTVYLQMNSLNPEDNAVYYCAAVSYYGVDQYRITVYTYEYWGQGTQVTVSS”, the “polyreactivity (PSR sort gate)” value is listed as “low polyreactivity”.

For “QVQLEESGGGLVQAGGSLRLSCAASGSIFFFYAMGWYRQAPGKERELVAAISSDGSTKYADSVKGRFTISRDNAKNTVYLQMNILKPEDTAVYYCNADKWSVVGYVLGFYRDDYWGQGTQVTVSS”, the “polyreactivity (PSR sort gate)” value is on record as “low polyreactivity”.

“QVQLVESGGGLVQAGGSLRLSCAASGFIFGYYAMGGYRQAPGKERELVAAISSSGTRTYYADSVKGRFTISRDNAKNTVYLQMNSLKPEDTAVYYCAVTTAYSGAFYTGEYWGQGTQVTVSS”: the “polyreactivity (PSR sort gate)” value was “high polyreactivity”.

Take “QVHLVESGGGLVQAGRSLRLSCAASGRTSAYYAMGWYRQAPGKERELDAGITRGGRTNYADSVKGRFTISRDNAKNTVYLQMNSLKPEDTAVYYCAAKYGYYWNSRTSGYWGQGTQVTVSS”: the “polyreactivity (PSR sort gate)” value was “high polyreactivity”.

Take “QVQLVESGGGLVQAGGSLRLSCAASGSIFGFYAMGWYRQAPGKERELVASISSSGDSTYYADSVKGRFTISRDNAKNTVYLQMNSLNPEDTAVYYCAAVVYDIYGYEFDYWGQGTQVTVSS”: the “polyreactivity (PSR sort gate)” value was “low polyreactivity”.

Consider “QFQLVESGGGLVQAGGSLRLSCADSGRILRFYAMGWYRQAPGKERELVAAISWTGGRTYYADSVKGRFTISRDNAKNTVYLQMNSLKPEDTAVYYCAAEVFTTGSFRRYDYWGQGTQVTVSS”, for which the “polyreactivity (PSR sort gate)” value is “high polyreactivity”.

For “QVQLVESGGGVVQAGGSLRLSCAASGFTFVWHAMGWYRQAPGKEREFVAAISRRGGTTNYADSVKGRFTISRDNAKNTVYLQMNSLKPEDTAVYYCNIEPRYRSSGGMDYWGQGTQVTASS”, the “polyreactivity (PSR sort gate)” value was “high polyreactivity”.

Take “QVQLVESGGGLVQAGGSLRLSCAASGSIFRGYTMGWYRQAPGKERELVAAISTRGGSTYYADSVKGRFTISRDNAKNTVYLQMNSLKPEDTAVYYCNARSRGRASGYDYWGQGTQVTVSS”: the “polyreactivity (PSR sort gate)” value was “high polyreactivity”.

With “QVQLVESGGGLVQAGGSLRLSCAASGSTFVGYAMGWYRPAPGKDRELVADIDSIGGSTYYADSVKGRFTISRDNAKNTVYVQMNSPKPEDTAVYYCAKTWYPWSRSGYYRRYDSWGQGTQVTVSS”, the “polyreactivity (PSR sort gate)” value is on record as “low polyreactivity”.

As for “QVQLVESGGGLVQAGASLRLSCAASGRTFSENAMGWYRQAPGKERELVAAISGSGGRTYYADSVKGRFTISRDNEKNTVYLQMKSLKPEVTAVYYCAKVTRYGSTYDYWGQGTQVTVSS”, the “polyreactivity (PSR sort gate)” value was “high polyreactivity”.

For “QVQLVESGGGLVQAGGSHRLSCAASGFTFVTYAMGWYRQAPGKERELVATISWGGGGTYYADSVKGRFTMSRDNAKNTVYFQLNSLKPEDTAVYYCAADNCYHYNFDYWGQGTQVTVSS”, the “polyreactivity (PSR sort gate)” value was “low polyreactivity”.

Turning to “QVQIVESGGGLVQAGGSLRLSCAASGRIFYKNAMGWYRQAPGKERELVAAISNVGSTYYADSVKGRFTISRDNAKTTVYLQMNSLKPEDTAVYYCNKRIYHLFTYDFWGQGTQVTVSS”, the “polyreactivity (PSR sort gate)” value is reported as “high polyreactivity”.

As for “QVQLVESGRGLVQAGGSLRLSCAASGRIFDKYAMGWYRQAPGKERELVAAISSSGGSTYYADSVKGRFTISRDNAKNTVYLQMNSLKTEVTAVYYCARQRYYGYYYWGQGTQVTVSS”, the “polyreactivity (PSR sort gate)” value is “high polyreactivity”.

On to “QVQLVESGGGLVQAGGSLRLRCAASGSIFFYYVMGLSRQAPGKERELVAVISSGGGSTYYADSVKGRFTISRDNAKYTVYLQMNSLKPEDTAVYYCAAGTYYKFYYWGQGTQVTESS”, for which the “polyreactivity (PSR sort gate)” value is “high polyreactivity”.

“QVQLVESCGGLVQAGGSLRLICAASGSIFFRNAKGWYRQAPGKERELVAAIRYTGTSTYYADSVKGRFTISRDNAKNTVYVQMNSLKPEDTAVYYCAKPWGSVRRREMDYWGQGTQVTVSS”: the “polyreactivity (PSR sort gate)” value is listed as “low polyreactivity”.

Take “QVQHVESGGGLVQAGGRLRLSCAASGGIYYYAMGWYRQAPGKERELVAAISSGGGNTNYADSVKGRFTISRDNAKNTVYLQMNSLKPEDTAVYYCATDGFIPTYSYTEIGYDYWGQGTQVTVSS”: the “polyreactivity (PSR sort gate)” value is reported as “low polyreactivity”.

Regarding “QVQLVESGGGLLQAGGSLRLSCAASGFTIQRYAMGWYRQAPGKERELVAAITSGGSTYYADSVKGRFTISRDNAKNTVYLQMNSLKPEDTAVYYCATRAVWSSWGRRYDSWGQGTQVTVSS”, the “polyreactivity (PSR sort gate)” value is reported as “high polyreactivity”.

As for “QVQLVESGGGLVQAGGSLRLSCAASGSIFSCYTMGWYRQAPGKERELVAASTTYADSVKGRFTISRDNAKNTVYLQMNSLKPEDTAVSYCATRHPARRDYWGQGTQVTVSS”, the “polyreactivity (PSR sort gate)” value is reported as “low polyreactivity”.

Consider “QFQLVESGGGLVQAGGSLRLSCAASGITFGSSAMGWYRQAPGKDRELVAAIDTSGDDTYYADSVKGRFTISRDNAKNTVYLQMNSLKPEDTAVYYCNAVSTASDEYDYWGQGSQVTVSS”, for which the “polyreactivity (PSR sort gate)” value is given as “low polyreactivity”.

For the sequence “QVQLVESGGGLVQAGGSLRLSCAASGSIFYWYVMVWYRQAPGKERELVATISDSTNYADSVKGRFTISRDNAKNTVYLQMNSLKPEDTAVYYCNARVRGLGKYESWGQGTQVTVSS”, the “polyreactivity (PSR sort gate)” value is given as “low polyreactivity”.

As to “QVQLVESGGGLVQAGGSLRLSCADSGSIFDVNVMGWYRQAPAKERELVASINISGASTYYADSVKGRLTISRDNAKNTVSLQMNSLKPEDTAVYYCAGTYGVPSFRYGYWGQGTQVTVSS”, the “polyreactivity (PSR sort gate)” value is “low polyreactivity”.

On to “QDQHVESGGGLVQAGGSLRLSGADSGSIFLLYAMGCYRQAPGKERELVAAISTRDGSTYYADSVKGRFTISRDNAKNTVYLQMNSLKPEDTAVYYCATLYSYNYWGQGTQVTVSS”, for which the “polyreactivity (PSR sort gate)” value is recorded as “high polyreactivity”.

Consider “QVQLVESGGGLVQAGGSLRLSCAASGRIFPSYAMGWYIQAPGKERELVAAITSSDSTYYADSVKGRFTISRDNAKNTVYLQMNSLKPEDTAVYYCAAAYSYSGWWWFGYWGQGTQVTVSS”, for which the “polyreactivity (PSR sort gate)” value is given as “high polyreactivity”.

For the sequence “QVQLVESGGGLDQAGGSLRLSCAASGSTLGRNAMGWYRQAPGKERELVAAISSSSGRTYYADSVKGRFTISRDNAKNTVYLQMNSLKPEDTAVYYCAATHAVARPLEYDYWGQGTQVTVSS”, the “polyreactivity (PSR sort gate)” value is on record as “low polyreactivity”.

For “QVQLVESGGGIVQAGGILRLSCAASGRISVFNDMGWYRQAPGKERELVAAITSGGSTKYADSVKGRFTISRDNAKNTVYLQMNSLKPEDTAVYYCASLYQFHGKIWDGDYWGQGTQVNVSS”, the “polyreactivity (PSR sort gate)” value was “low polyreactivity”.

For the sequence “QVQLVESVGGLVQAGGSLRLSCAASGRTFRFYTMGWYRQAPGKERELVADISWTSGRTYYADSVKGRFTISRDNAKNTVYLQMKSLKPEDTAVYYCAAYFFSRYSLYDYWGQGTQVTVSS”, the “polyreactivity (PSR sort gate)” value is “high polyreactivity”.

Take “QVQLVESGGGVVQAGGSLRLSCAASGRTIWSNAMGWYRQAPGKERELVAAISRTGGRTYYADSVKGRFTISRDNAKNTVYLQMNSLKREDTAVYYCATGSGVYDYWGQGTQLTVSS”: the “polyreactivity (PSR sort gate)” value is reported as “high polyreactivity”.

Take “QVQLVESGGGLVQAGGSLRISFAASGSTFDIYVMGWYRQAPGKERELVAAISRVGNTSYADSVKGRFTISRDNAKNTVYLQMNSLKPEDKAVYYCAADAPSWYDRQYDYWGKGTQVTVSS”: the “polyreactivity (PSR sort gate)” value is reported as “low polyreactivity”.
